# Measurements taken from the DeepSol protein solubility set.
# Assay: soluble on expression in E. coli; label from the status in PepcDB or PDB records
row,Sequence,soluble on expression in E. coli
1,MRILKIYENKGVYKVVIGEPFPPIEFPLEQKISSNKSLSELGLTIVQQGNKVIVEKSLDLKEHIIGLGEKAFELDRKRKRYVMYNVDAGAYKKYQDPLYVSIPLFISVKDGVATGYFFNSASKVIFDVGLEEYDKVIVTIPEDSVEFYVIEGPRIEDVLEKYTELTGKPFLPPMWAFGYMISRYSYYPQDKVVELVDIMQKEGFRVAGVFLDIHYMDSYKLFTWHPYRFPEPKKLIDELHKRNVKLITIVDHGIRVDQNYSPFLSGMGKFCEIESGELFVGKMWPGTTVYPDFFREDTREWWAGLISEWLSQGVDGIWLDMNEPTDFSRAIEIRDVLSSLPVQFRDDRLVTTFPDNVVHYLRGKRVKHEKVRNAYPLYEAMATFKGFRTSHRNEIFILSRAGYAGIQRYAFIWTGDNTPSWDDLKLQLQLVLGLSISGVPFVGCDIGGFQGRNFAEIDNSMDLLVKYYALALFFPFYRSHKATDGIDTEPVFLPDYYKEKVKEIVELRYKFLPYIYSLALEASEKGHPVIRPLFYEFQDDDDMYRIEDEYMVGKYLLYAPIVSKEESRLVTLPRGKWYNYWNGEIINGKSVVKSTHELPIYLREGSIIPLEGDELIVYGETSFKRYDNAEITSSSNEIKFSREIYVSKLTITSEKPVSKIIVDDSKEIQVEKTMQNTYVAKINQKIRGKINLE,soluble
2,MGSDKIHHHHHHMKQAEEVIHPEALSGTGIMTISREPVVFHCNHYNRFLQLVIEDCHYIDREPILVGSATEVSFRQLRTAFREHPEWSVANRLKYAESMYRFCGFGDLPLGALPHSAEPEFVLVENHSHYGTALRLNYGKRRWPGEHFDLGYAIGALSAIYGQPYGGKIDATALSTGAETTRFHLHLRNSGDRFPLDIPDIPQAVLPQGADQVPPRHIGLHIDEDAIMTAVGTLPLTGDPDGLIPAFGVYLTRHYADYYNLVSFRFERALQEALNTHRYLGEMLWYEYPTLFYYKEKFEHLQGQALARTLLMEAGHICGFNTMGGIMRSDPWYQLIVPQLQCREDWLSGIIACINALGWGVWRIQEIIPNERLILRAWYPYESLGHLRAFGPADHPIDYLMTGIGSSLMNLLYTADITTRPDLTLEFYYQVNRSKAGFWARQTRCMAMGDPYSEVVVERNIL,not soluble
3,MAKNAPRFVCQACGAVYPRWMGRCEACGEWNSIAEEAPAEALPKGQTGGRGGQRLSFVSLEGVGAPPPRLLTGIPELDRVAGGGLVAGSALLIGGDPGIGKSTLLLQAVAGLARGGARSVYISGEEAIDQVRLRALRLGLEKAPVDLAAATSVRDIVATLDSGEPPDVVVIDSIQTMYLDTLDSAPGTVAQVRAGSHELIRLAKRRGFVLFLVGHVTKEGQMAGPRVMEHMVDAVIYFEGERGHPFRILRAVKNRFGATDEIGVFEMSDAGLSEVPNPSALFLAERRGNVTGSCVFAGMEGTRPMLVEIQALVGPSAPGSARRAVVGWDGGRLAMVMAVLETRCGLALGGNDVYLNVAGGLRIGEPAADLAVAAALVSSFSGVPVPPDMVVFGEIGLSGEIRAVAHGDTRLKEAAKLGFDQALMPARPRDSGKRGGPGVKEGLRMREIGHLQDLVALLAPPENAGQGQRLEHHHHHH,soluble
4,MSLKISKLKKNVVLKNGTIIDPFNNYEKKGDIHIENGKIKAVGKIPTPKSSEIIDCKNLNITHGFFDLHVHFREPGGEDKEDLNSGSLAALAGGFTGVCTMPNTNPPIDSPESIRYIIDRSEECPIYIYPIGSITKSQEGKELTEMGAMLSQGAVAFSDDGLPISDAGVMYNALDYSSMFDVPIINHAEDECLKQDSVMHEGEVSTHLGLPGSPDITESNMVFRDLELSIRAGARIHIPHVSSEKSVNHIKTMKKKSDRITAEVSPHHIFFCDEDLYSFDTNLKVAPPIRTKNDRKALIDALKNGIIDCIATDHAPHTIEEKEGTFDIAPFGMIGLESCFGAVNKVLTKDKKISHLELIKLLTVNPRKIMKLNQDLFKEGTNAEIAIYDPNIEWKFSLENIYSKSNNSPLFKEGHHHHHH,not soluble
5,FAADLNSNLNLFYTPSEIVNGKTDTGVKPEAGQRIRVGGMVTVGSMVRDPNSLHVQFAVHDSLGGEILVTYDDLLPDLFREGQGIVAQGVLGEDGKLAATEVLAKHDENYMPPEVAEAMGQKHEKLDYSQQKSATQ,soluble
6,MFLYTETDQNLQACIDACNHCYRTCLRMAMNHCLEAGGKHVEADHLRLMMNCAEICQTSLNFMLSGSRFSPKVCGVCAEICDACAKSCEQLDGMEECVQTCRQCAEHCRKMAALEHHHHHH,soluble
7,MTQCFKCKQAIGTVVSRDGPTKLYCPDCFLAYCAGAVRENAFQQCRVPSDTPLAVAVSGGPNSMMLLRELGQLRYKTRDQIRRQHLTPQRQAPAQGGKSRSTPTSSPPARSTPLASSLILLPFHLCEDELVLPLPPPLSSSTSSPSSLHAISGRHEAVNRVRSAMEEQFATLRKYVQQQPPRWVYHGEVPCGHKRTKKQQNNPTAAERTGAAHAGGANIATPELSHRGGGSTSAPSPQPRPQRQAGESGETAAATARLFDDSEIRLFRYSDLLSGTYLSELRYALHVSRLSLSDREALYARVRQQTLCRAAQRVCQEHRQRNAAAAAATAVVVGGVAHEEGIREDAAQCSEEQAPFDEHVSLEGTNSKTRSHLLLGSNAVRCATAALEALVTGAGGEGVVHGAGFRGFTHEVVCLRPLRAMLPKETIMYTRLCGIAGSYTPALCTGTATRSVHRTLEQFVLTMMTSYRTMIFNVLNTVQRLEVHPAAMQELLRGIDDASACHTHVHGEGLAEAGSTQSAGKTTRKALPARTAQLNRTDMCLAAPLHVRRDLGGVNVNEADIDSVIAMCCVCGCPASITSCYRGQNANTAVRQLEMLALNTTSAMTPRTSGASPSTVADAASASEASPTTTGCFLCYACQGLADAWPPSVFGRDSTTENDEQPGNDSTTAAGAAARHGAIASTAALFRLCALFY,not soluble
8,MSKDYRSLANLSPFELKDELIKVASGKANRLMLNAGRGNPNFLATTPRRAFFRLGLFAAAESELSYSYMTVGVGGLAKLDGIEGRFERFIAEHRDQEGVKFLGKSLSYVRDQLGLDPAAFLHEMVDGILGCNYPVPPRMLTVSEQIVRQYIVREMAGGAVPPESVDLFAVEGGTAAMAYIFESLRISGLLKAGDKVAIGMPVFTPYIEIPELAQYDLKEVPIHADPDNGWQYSDAELDKLKDPDVKIFFCVNPSNPPSVKMDQRSLDRVRAIVAEQRPDLLILTDDVYGTFADEFQSLFSVCPRNTLLVYSFSKYFGATGWRLGVIAAHKDNVFDHALSQLPESAKKALDHRYRSLLPDVRSLKFIDRLVADSRVVALNHTAGLSTPQQVQMVLFSLFALMDEADAYKQALKQLIRRREATLYRELGMPPLENPNSVNYYTLIDLQNVTCRLYGEAFSQWAVQQSSTGDMLFRVADETGIVLLPGRGFGSDRPSGRASLANLNEYEYAAIGRALRRLADELYEQYKALGKEKLAAALEHHHHHH,soluble
9,TMLSFVTTDANIDHGHLQGALSAITNETFNRITVDGDTSTNDMVVVMASGLAENETLTPEHPDWANFYKALQLACEDLAKQIARDGEGATKLIEVEVTGAANDQEAGMVAKQIVGSDLVKTAIYGADANWGRIICAIGYSGCEVNQETIDIAIGPIVTLKQSEPTGFSEEEATAYLKEADPVKISVNLHIGNGTGKAWGCDLTYDYVRINAGYRT,soluble
10,SDPVDYQAEDATIVQGAVESNHAGYTGTGFVNYDNVAGSSVEWTVTVPSAGTYDVVVRYANGTTTSRPLDFSVNGSISASGVAFGSTGTWPAWTTKTVRVTLAAGVNKIKAVATTANGGPNVDKITL,soluble
11,MTTANTPVRPKSAIDAVADAYTEKLIELNPSFATTLGLPGHETEYQDYSPAGAAAHAEATRLALEALAGLEPSDDVDAVTLDAMRERLGLELEIHQSGWDAADLNNIASPAQDIRAIFDLMPTDTVEHWEHIAGRAANVPGAIEGYIASLRAAKDDRKVAAARQIRIVIEQTGRYAAEDGFFAKMAADASLGDAPLPAEVQDKLDAGTSAARSAYSALGAFLRDELLPVAPEKDAVGRERYSLASRSFIGAEVDLEETYAWGVQELERLISEQEKVAGQIKPGASIEEAKSILNNDPARQIKGTDALKAWMQELSDRAVSELADVHFDIPDVMKTLECMIAPTDEGGIYYTGPSDDFSRPGRMWWSVPAGEDTFTTWSETTTVFHEGVPGHHLQVATATYRRELLNNWRRNVCWVSGHGEGWALYAEQLMLELGYLKDPGDHMGMLDGQRMRAARVVFDIGVHLELPVPERWGTGTWTPEKGFDFLKANLDISEGQLQFEFTRYLGWPGQAPSYKVGQRLWEQIRAELESREGFDLKSFHSKALNIGSVGLDVLRRALL,soluble
